Reference: the Immune Epitope Database (IEDB)

Experiments:
HLA-A*01:01 [1] = test: IEDB peptide-MHC binding, purified MHC/competitive/radioactivity; filed as Kd, often an IC50 or EC50 that approximates it; ≥ and ≤ were set here for values at or beyond the usual limits of such assays
HLA-A*01:01 [2] = test: IEDB peptide-MHC binding, purified MHC/competitive/radioactivity; ≥ and ≤ were set here for values at or beyond the usual limits of such assays; settings: source organism: Homo sapiens
HLA-A*24:02 = test: as above; settings: source organism: Homo sapiens
HLA-A*03:01 = test: as above; settings: source organism: Homo sapiens
HLA-A*11:01 = test: as above; settings: source organism: Homo sapiens

| IC50 (HLA-A*01:01 [2]) | IC50 (HLA-A*03:01) | IC50 (HLA-A*11:01) | Sequence | further results |
| --- | --- | --- | --- | --- |
|  |  |  | DAKIRIFDL | Kd (HLA-A*01:01 [1]; source organism: Homo sapiens): ≥ 50000 nM |
| 2.8 nM |  |  | YLDDPDLKY |  |
|  |  |  | NRKLLDIA | Kd (HLA-A*01:01 [1]; source organism: Bos taurus): ≥ 50000 nM |
| 0.6 nM |  |  | DSDGSFFLY |  |
|  |  |  | AYVHMVTHF | IC50 (HLA-A*24:02): 23 nM |
| 0.74 nM |  |  | ATDFKFAMY |  |
|  | 85 nM | 8.1 nM | KVVNPLFEK |  |
|  |  |  | KYPENFFLL | IC50 (HLA-A*24:02): 4.8 nM |
|  | 42 nM | 15.1 nM | ASFDKAKLK |  |
|  | 128 nM | 6.94 nM | SVLNLVIVK |  |
| 1.7 nM |  |  | STDHIPILY |  |
|  |  |  | YYEEQHPEL | IC50 (HLA-A*24:02): 100 nM |
|  | 155 nM | 31 nM | RTQNVLGEK |  |
